# Publication PMC6910828, “Extraction of active RhoGTPases by RhoGDI regulates spatiotemporal patterning of RhoGTPases” (eLife, 2019)
# B1: Xenopus laevis RhoGDI, wild type (natural protein)
# chain: MAEHEPTPEQLHQIAAENQDEEHSVDYKPPAQKSIKEIQELDQDDESLRKYKEALLGSLPSSADPEASNVVVTKLTLLCDCAPGPLELDLTGDLEKFKKQSFTLKEGVEYRIKISFKVNKEIVSGLRYQQQTYRKGVRLDRTRYMVGSYGPRVDEYEFLTPIEEAPNGMLARGCYNIKSLFTDDDKSNHLSWEWNLHIKNDWKS
# Experiments:
# Details in all cases: both partners purified
# [1] = molecular target: Cy3-labelled, prenylated Cdc42 G12V, GTPγS-bound (Cy3 at the N-terminus (Cy3 N-t labeled LPETGG peptide joined by sortase); geranylgeranyl by in vitro prenylation (C-terminal prenyl moiety); GTPγS-bound); test: membrane extraction (wash-off) assay on supported lipid bilayers, TIRF; as above, GDI titrated between 0 and 20 µM; Koff of the GTPase from the membrane plotted against GDI concentration and fitted with a hyperbolic function (Kd, Vmax); apparent affinities
# Sequence of Cy3-labelled, prenylated Cdc42 G12V, GTPγS-bound (Cy3 at the N-terminus (Cy3 N-t labeled LPETGG peptide joined by sortase); geranylgeranyl by in vitro prenylation (C-terminal prenyl moiety); GTPγS-bound) (chain, as listed by the source G12V): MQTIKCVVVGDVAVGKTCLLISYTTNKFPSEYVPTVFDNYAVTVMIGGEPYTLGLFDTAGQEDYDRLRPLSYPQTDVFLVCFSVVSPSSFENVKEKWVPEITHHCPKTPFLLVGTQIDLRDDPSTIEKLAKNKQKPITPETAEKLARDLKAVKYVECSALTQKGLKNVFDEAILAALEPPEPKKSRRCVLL
# [2] = molecular target: Cy3-labelled, prenylated Rho G14V, GTPγS-bound (Cy3 at the N-terminus (Cy3 N-t labeled LPETGG peptide joined by sortase); geranylgeranyl by in vitro prenylation (C-terminal prenyl moiety); GTPγS-bound); test: as above
# Sequence of Cy3-labelled, prenylated Rho G14V, GTPγS-bound (Cy3 at the N-terminus (Cy3 N-t labeled LPETGG peptide joined by sortase); geranylgeranyl by in vitro prenylation (C-terminal prenyl moiety); GTPγS-bound) (chain, as listed by the source G14V): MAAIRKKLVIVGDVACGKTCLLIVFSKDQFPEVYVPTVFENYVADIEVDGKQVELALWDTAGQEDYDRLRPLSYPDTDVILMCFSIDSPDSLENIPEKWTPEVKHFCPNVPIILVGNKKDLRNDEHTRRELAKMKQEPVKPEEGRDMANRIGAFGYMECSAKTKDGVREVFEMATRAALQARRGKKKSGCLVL
# [3] = molecular target: Cy3-labelled, prenylated Cdc42, wild type, GDP-bound (Cy3 at the N-terminus (Cy3 N-t labeled LPETGG peptide joined by sortase); geranylgeranyl by in vitro prenylation (C-terminal prenyl moiety); GDP-bound); test: membrane extraction (wash-off) assay on supported lipid bilayers, TIRF; Cy3-labelled prenylated GTPase (200 nM) equilibrated on 100% DOPC supported lipid bilayers, flushed at 10 µL/sec with imaging buffer (20 mM HEPES pH 7.0, 150 mM KCl, 1.5 mM MgCl2, 0.5 mM EGTA, 100 µM GDP/GTP) alone or with 5 µM RhoGDI; decay fitted with a monoexponential function
# Sequence of Cy3-labelled, prenylated Cdc42, wild type, GDP-bound (Cy3 at the N-terminus (Cy3 N-t labeled LPETGG peptide joined by sortase); geranylgeranyl by in vitro prenylation (C-terminal prenyl moiety); GDP-bound) (P60953 whole entry): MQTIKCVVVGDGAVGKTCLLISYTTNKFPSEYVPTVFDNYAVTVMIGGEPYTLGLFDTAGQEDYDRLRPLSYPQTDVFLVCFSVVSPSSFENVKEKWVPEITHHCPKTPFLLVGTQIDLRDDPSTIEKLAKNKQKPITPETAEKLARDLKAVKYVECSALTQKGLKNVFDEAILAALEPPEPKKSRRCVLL
binder,measurement,setting,value
B1,"fold difference in extraction, GDP-bound GTPase over GTPγS-bound G12V",[1],1.5 fold
same,"fold difference in extraction, GDP-bound GTPase over GTPγS-bound G14V",[2],1.5 fold
same,fold acceleration of the dissociation of Cdc42:GDP from the membrane by excess GDI,[3],~20 fold
